Results from patent publication US20160130305A1.

What was measured:
HLA B*0702 (human) = experiment: competition with radiolabeled probe peptide on purified HLA
HLA DRB1*0101 (human) = experiment: competition with radiolabeled probe peptide, purified MHC

Substance	IC50 (HLA B*0702 (human)) [nM]	IC50 (HLA DRB1*0101 (human)) [nM]
NS4B2296-2305 (peptide)	> 1000	
NS52967-2981 (peptide; other documents disagree on this pair)		48
